# Measured values published in patent publication US20250152742A1, “COMPOSITIONS AND METHODS FOR NEUROLOGICAL DISEASES” (Trames Bio, Inc., priority 2022, published 2025).
# Numbering of substitutions follows the chain as printed. In names and notes the source's numbering stands.
# B1: CODA337: engineered receptor: L131N in SEQ ID NO: 33 (protein)
# chain: MRCSPGGVWLALAASLLHVSLQGEFQRKLYKELVKNYNPLERPVANDSQPLTVYFSLSLLQIMDVDEKNQVLTTNIWLQMSWTDHYLQWNVSEYPGVKTVRFPDGQIWKPDILLYNSADERFDATFHTNVNVNSSGHCQYLPPGIFKSSCPMDLKNFPMDVQTCKLKFGSWSYGGWSLDLQMQEADISGYIPNGEWDLVGIPGKRSERFYECCKEPYPDVTFTVTMRRRMGYYLIQMYIPSLLIVILSWISFWINMDAAPARVGLGITTVLTMTTQSSGSRASLPKVSYVKAIDIWMAVCLLFVFSALLEYAAVNFVSRQHKELLRFRRKRRHHKSPMLNLFQEDEAGEGRFNFSAYGMGPACLQAKDGISVKGANNSNTTNPPPAPSKSPEEMRKLFIQRAKKIDKISRIGFPMAFLIFNMFYWIIYKIVRREDVHNQ
# modifications: synthetic sequence of chimeric LGIC
# B2: CODA945: engineered receptor: Q139E in SEQ ID NO: 33 (protein)
# chain: B1 chain with N131L, Q139E
# modifications: synthetic sequence of chimeric LGIC
# Test system: engineered chimeric receptor SEQ ID NO: 33 and its mutants (human α7-nAChR ligand binding domain / human GlyRα1 ion pore domain) in Lenti-X 293T cells
# Assay: YFP fluorescence quenching anion reporter plate reader assay (percent quench, EC50)
# Format: cell-based
# Settings: for YFP fluorescence quenching using CNL001 (percent quench): receptor named in row; for YFP fluorescence quenching using Facinicline, 30 nM fac: ligand Facinicline 30 nM; for YFP fluorescence quenching using Facinicline, 300 nM fac: ligand Facinicline 300 nM; for YFP fluorescence quenching using Facinicline, 30 uM fac: ligand Facinicline 30 uM; for YFP fluorescence quenching using TC-6987, 1 uM tc6987: ligand TC-6987 1 uM; for YFP fluorescence quenching using TC-6987, 10 uM tc6987: ligand TC-6987 10 uM; for YFP fluorescence quenching using TC-6987, 500 uM tc6987: ligand TC-6987 500 uM; for YFP fluorescence quenching using Varenicline, 3 nM var: ligand Varenicline 3 nM; for YFP fluorescence quenching using Varenicline, 30 nM var: ligand Varenicline 30 nM; for YFP fluorescence quenching using Varenicline, 300 nM var: ligand Varenicline 300 nM; for YFP fluorescence quenching using Varenicline, 500 nM var: ligand Varenicline 500 nM; for YFP fluorescence quenching using Varenicline, 1 uM var: ligand Varenicline 1 uM
# Outline: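 Percent quench compares mean YFP signal over the final 10 s with the 15 s baseline before ligand, added in iodide-containing extracellular solution (pH 7.2). Cells were LX293T carrying a YFP anion reporter, transiently transfected with the channel construct; plates were preincubated 30 min at 37 °C.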
# [1] = 1 nM CNL001, first column so headed
# [2] = 1 nM CNL001, second column so headed
# [3] = 3 nM brd (TC-5619/Bradanicline)
# [4] = 10 nM CNL001, first column so headed
# [5] = 10 nM CNL001, second column so headed
# [6] = 30 nM brd (TC-5619/Bradanicline)
# [7] = 50 nM CNL001, first column so headed
# [8] = 50 nM CNL001, second column so headed
# [9] = 100 nM CNL001, first column so headed
# [10] = 100 nM CNL001, second column so headed
# [11] = 300 nM brd (TC-5619/Bradanicline)
# [12] = 1 uM CNL001, first column so headed
# [13] = 1 uM CNL001, second column so headed
molecule,measurement,setting,value
B1,YFP fluorescence quenching using CNL001 (percent quench),[1],76.917%
same,YFP fluorescence quenching using CNL001 (percent quench),[2],79.554%
same,YFP fluorescence quenching using TC-5619/Bradanicline (percent quench),[3],71.02%
same,YFP fluorescence quenching using CNL001 (percent quench),[4],79.479%
same,YFP fluorescence quenching using CNL001 (percent quench),[5],79.506%
same,YFP fluorescence quenching using TC-6683 (percent quench),30 nM TC-6683,−11.51%
same,YFP fluorescence quenching using TC-5619/Bradanicline (percent quench),[6],78.43%
same,YFP fluorescence quenching using CNL001 (percent quench),[7],81.465%
same,YFP fluorescence quenching using CNL001 (percent quench),[8],81.297%
same,YFP fluorescence quenching using ABT-126 (percent quench),50 nM abt (ABT-126),−11.64%
same,YFP fluorescence quenching using CNL001 (percent quench),[9],82.619%
same,YFP fluorescence quenching using CNL001 (percent quench),[10],81.722%
same,YFP fluorescence quenching (percent quench),100 nM CNL002,76.37%
same,YFP fluorescence quenching using ABT-126 (percent quench),100 nM abt (ABT-126),34.79%
same,YFP fluorescence quenching using AZD-0328 (percent quench),100 nM azd0328,82.1%
same,YFP fluorescence quenching using TC-6683 (percent quench),300 nM TC-6683,−13.17%
same,YFP fluorescence quenching using ABT-126 (percent quench),300 nM abt (ABT-126),60.08%
same,YFP fluorescence quenching using AZD-0328 (percent quench),300 nM azd0328,82.52%
same,YFP fluorescence quenching using TC-5619/Bradanicline (percent quench),[11],77.12%
same,YFP fluorescence quenching using CNL001 (percent quench),[12],81.96%
same,YFP fluorescence quenching using CNL001 (percent quench),[13],81.773%
same,YFP fluorescence quenching (percent quench),1 uM CNL002,80.18%
same,YFP fluorescence quenching using ABT-126 (percent quench),1 uM abt (ABT-126),65.99%
same,YFP fluorescence quenching using TC-6683 (percent quench),3 uM TC-6683,−5.46%
same,YFP fluorescence quenching (percent quench),10 uM ach (acetylcholine),28.32%
same,YFP fluorescence quenching (percent quench),30 uM CNL002,80.93%
same,YFP fluorescence quenching using TC-6683 (percent quench),30 uM TC-6683,8.53%
same,YFP fluorescence quenching using AZD-0328 (percent quench),30 uM azd0328,82.32%
same,YFP fluorescence quenching using TC-6683 (percent quench),100 uM TC-6683,14.41%
same,YFP fluorescence quenching (percent quench),100 uM ach (acetylcholine),81.8%
same,YFP fluorescence quenching (percent quench),1 mM ach (acetylcholine),71.22%
same,YFP fluorescence quenching (percent quench),3 mM ach (acetylcholine),73.7%
same,"YFP fluorescence quenching using Facinicline, 30 nM fac",,82.25
same,"YFP fluorescence quenching using Facinicline, 300 nM fac",,83.59
same,"YFP fluorescence quenching using Facinicline, 30 uM fac",,82.82
same,"YFP fluorescence quenching using TC-6987, 1 uM tc6987",,79.06
same,"YFP fluorescence quenching using TC-6987, 10 uM tc6987",,82.36
same,"YFP fluorescence quenching using TC-6987, 500 uM tc6987",,80.19
same,"YFP fluorescence quenching using Varenicline, 3 nM var",first column,3.093
same,"YFP fluorescence quenching using Varenicline, 3 nM var",second column,12.327
same,"YFP fluorescence quenching using Varenicline, 30 nM var",first column,77.097
same,"YFP fluorescence quenching using Varenicline, 30 nM var",second column,77.653
same,"YFP fluorescence quenching using Varenicline, 300 nM var",first column,79.446
same,"YFP fluorescence quenching using Varenicline, 300 nM var",second column,79.998
same,"YFP fluorescence quenching using Varenicline, 500 nM var",first column,80.691
same,"YFP fluorescence quenching using Varenicline, 500 nM var",second column,80.309
same,"YFP fluorescence quenching using Varenicline, 1 uM var",first column,80.258
same,"YFP fluorescence quenching using Varenicline, 1 uM var",second column,79.509
B2,YFP fluorescence quenching using CNL001 (percent quench),[1],6.65%
same,YFP fluorescence quenching using CNL001 (percent quench),[2],13.512%
same,YFP fluorescence quenching using TC-5619/Bradanicline (percent quench),[3],14.15%
same,YFP fluorescence quenching using CNL001 (percent quench),[4],78.678%
same,YFP fluorescence quenching using CNL001 (percent quench),[5],82.723%
same,YFP fluorescence quenching using TC-6683 (percent quench),30 nM TC-6683,−26.47%
same,YFP fluorescence quenching using TC-5619/Bradanicline (percent quench),[6],78.18%
same,YFP fluorescence quenching using CNL001 (percent quench),[7],84.91%
same,YFP fluorescence quenching using CNL001 (percent quench),[8],84.849%
same,YFP fluorescence quenching using ABT-126 (percent quench),50 nM abt (ABT-126),−8.27%
same,YFP fluorescence quenching using CNL001 (percent quench),[9],85.046%
same,YFP fluorescence quenching using CNL001 (percent quench),[10],84.642%
same,YFP fluorescence quenching (percent quench),100 nM CNL002,60.5%
same,YFP fluorescence quenching using ABT-126 (percent quench),100 nM abt (ABT-126),4.76%
same,YFP fluorescence quenching using AZD-0328 (percent quench),100 nM azd0328,−5.79%
same,YFP fluorescence quenching using TC-6683 (percent quench),300 nM TC-6683,−18.62%
same,YFP fluorescence quenching using ABT-126 (percent quench),300 nM abt (ABT-126),30.88%
same,YFP fluorescence quenching using AZD-0328 (percent quench),300 nM azd0328,58.47%
same,YFP fluorescence quenching using TC-5619/Bradanicline (percent quench),[11],76.8%
same,YFP fluorescence quenching using CNL001 (percent quench),[12],85.493%
same,YFP fluorescence quenching using CNL001 (percent quench),[13],86.071%
same,YFP fluorescence quenching (percent quench),1 uM CNL002,75.41%
same,YFP fluorescence quenching using ABT-126 (percent quench),1 uM abt (ABT-126),60.66%
same,YFP fluorescence quenching using TC-6683 (percent quench),3 uM TC-6683,−13.39%
same,YFP fluorescence quenching (percent quench),10 uM ach (acetylcholine),−1.25%
same,YFP fluorescence quenching (percent quench),30 uM CNL002,77.46%
same,YFP fluorescence quenching using TC-6683 (percent quench),30 uM TC-6683,−16.6%
same,YFP fluorescence quenching using AZD-0328 (percent quench),30 uM azd0328,66.57%
same,YFP fluorescence quenching using TC-6683 (percent quench),100 uM TC-6683,−12.89%
same,YFP fluorescence quenching (percent quench),100 uM ach (acetylcholine),71.21%
same,YFP fluorescence quenching (percent quench),1 mM ach (acetylcholine),71.79%
same,YFP fluorescence quenching (percent quench),3 mM ach (acetylcholine),76.04%
same,"YFP fluorescence quenching using Facinicline, 30 nM fac",,−7.16
same,"YFP fluorescence quenching using Facinicline, 300 nM fac",,71.17
same,"YFP fluorescence quenching using Facinicline, 30 uM fac",,72.14
same,"YFP fluorescence quenching using TC-6987, 1 uM tc6987",,−0.97
same,"YFP fluorescence quenching using TC-6987, 10 uM tc6987",,21.53
same,"YFP fluorescence quenching using TC-6987, 500 uM tc6987",,7.39
same,"YFP fluorescence quenching using Varenicline, 3 nM var",first column,8.207
same,"YFP fluorescence quenching using Varenicline, 3 nM var",second column,7.835
same,"YFP fluorescence quenching using Varenicline, 30 nM var",first column,9.509
same,"YFP fluorescence quenching using Varenicline, 30 nM var",second column,10.204
same,"YFP fluorescence quenching using Varenicline, 300 nM var",first column,9.818
same,"YFP fluorescence quenching using Varenicline, 300 nM var",second column,12.539
same,"YFP fluorescence quenching using Varenicline, 500 nM var",first column,16.762
same,"YFP fluorescence quenching using Varenicline, 500 nM var",second column,15.21
same,"YFP fluorescence quenching using Varenicline, 1 uM var",first column,48.292
same,"YFP fluorescence quenching using Varenicline, 1 uM var",second column,54.096
